From article PMC13384491

Legend:
[1] = target: Axonemes purified from sea urchin sperm, used as microtubule tracks (sea urchin); assay: optical trapping; fixed (stationary) trap, high z-force: biotinylated K560 directly on 860-nm streptavidin beads, single motors, surface-immobilized axonemes, 2 mM ATP, 30 mM HEPES, 5 mM MgSO4, 1 mM EGTA, 10% glycerol, pH 7.4 with casein
[2] = target: Axonemes purified from sea urchin sperm, used as microtubule tracks (sea urchin); assay: optical trapping; fixed (stationary) trap, low z-force: oligo-labeled full-length KIF5B on 510-nm beads through a 2.8 kb DNA handle, single motors, surface-immobilized axonemes, 2 mM ATP, 30 mM HEPES, 5 mM MgSO4, 1 mM EGTA, 10% glycerol, pH 7.4 with casein

stall time before detachment (weighted average of the two decays) [1] | stall time before detachment (weighted average of the two decays) [2] | Substance
0.27 s |  | K560-GFP-SNAP, tail-truncated, constitutively active human kinesin-1 KIF5B (amino acids 1-560) (from UniProt P33176 1-560) (domain or fragment)
 | 1.49 s | KIF5B-GFP-SNAP, full-length human kinesin-1 KIF5B, oligo-labeled (from UniProt P33176 1-963) (natural protein)
